Patent US20230220589A1
Blank lines part the entries; values can stand above or below the binder they belong to.

Assays:
[1] = molecular target: M44-modified A NTAA target peptides (M44-A-P2-peptide); assay: encoding assay; P2 E
[2] = molecular target: M44-modified D NTAA target peptides; assay: encoding assay; P2 E;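 note: fraction of recording tags encoded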
[3] = molecular target: M44-modified E NTAA target peptides; assay: encoding assay; P2 E;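 note: fraction of recording tags encoded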
[4] = molecular target: M44-modified F NTAA target peptides (M44-F-P2-peptide); assay: encoding assay; P2 E;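 note: fraction of recording tags encoded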
[5] = molecular target: M44-modified H NTAA target peptides; assay: encoding assay; P2 E
[6] = molecular target: M44-modified I NTAA target peptides (M44-I-P2-peptide); assay: encoding assay; P2 E
[7] = molecular target: M44-modified L NTAA target peptides (M44-L-P2-peptide); assay: encoding assay; P2 E;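 note: fraction of recording tags encoded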
[8] = molecular target: M44-modified M NTAA target peptides; assay: encoding assay; P2 E
[9] = molecular target: M44-modified N NTAA target peptides; assay: encoding assay; P2 E
[10] = molecular target: M44-modified P NTAA target peptides; assay: encoding assay; P2 E;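 note: fraction of recording tags encoded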
[11] = molecular target: M44-modified Q NTAA target peptides; assay: encoding assay; P2 E
[12] = molecular target: M44-modified S NTAA target peptides; assay: encoding assay; P2 E
[13] = molecular target: M44-modified T NTAA target peptides; assay: encoding assay; P2 E
[14] = molecular target: M44-modified V NTAA target peptides; assay: encoding assay; P2 E;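 note: fraction of recording tags encoded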
[15] = molecular target: M44-modified W NTAA target peptides; assay: encoding assay; P2 E;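 note: fraction of recording tags encoded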
[16] = molecular target: M44-modified Y NTAA target peptides (M44-Y-P2-peptide); assay: encoding assay; P2 E;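 note: fraction of recording tags encoded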
[17] = molecular target: M44-modified A NTAA target peptides (M44-A-P2-peptide); assay: encoding assay; P2 S
[18] = molecular target: M44-modified F NTAA target peptides (M44-F-P2-peptide); assay: encoding assay; P2 S;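 note: fraction of recording tags encoded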
[19] = molecular target: M44-modified G NTAA target peptides (M44-G-P2-peptide); assay: encoding assay; P2 S;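 note: fraction of recording tags encoded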
[20] = molecular target: M44-modified H NTAA target peptides; assay: encoding assay; P2 S
[21] = molecular target: M44-modified I NTAA target peptides (M44-I-P2-peptide); assay: encoding assay; P2 S
[22] = molecular target: M44-modified L NTAA target peptides (M44-L-P2-peptide); assay: encoding assay; P2 S;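 note: fraction of recording tags encoded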
[23] = molecular target: M44-modified M NTAA target peptides; assay: encoding assay; P2 S
[24] = molecular target: M44-modified P NTAA target peptides; assay: encoding assay; P2 S;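 note: fraction of recording tags encoded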
[25] = molecular target: M44-modified Q NTAA target peptides; assay: encoding assay; P2 S
[26] = molecular target: M44-modified T NTAA target peptides; assay: encoding assay; P2 S
[27] = molecular target: M44-modified V NTAA target peptides; assay: encoding assay; P2 S;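 note: fraction of recording tags encoded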
[28] = molecular target: M44-modified Y NTAA target peptides (M44-Y-P2-peptide); assay: encoding assay; P2 S;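 note: fraction of recording tags encoded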
[29] = molecular target: M44-modified E NTAA target peptides; assay: encoding assay; P2 M;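 note: fraction of recording tags encoded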
[30] = molecular target: M44-modified F NTAA target peptides (M44-F-P2-peptide); assay: encoding assay; P2 M;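 note: fraction of recording tags encoded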
[31] = molecular target: M44-modified I NTAA target peptides (M44-I-P2-peptide); assay: encoding assay; P2 M
[32] = molecular target: M44-modified L NTAA target peptides (M44-L-P2-peptide); assay: encoding assay; P2 M;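 note: fraction of recording tags encoded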
[33] = molecular target: M44-modified M NTAA target peptides; assay: encoding assay; P2 M
[34] = molecular target: M44-modified N NTAA target peptides; assay: encoding assay; P2 M
[35] = molecular target: M44-modified P NTAA target peptides; assay: encoding assay; P2 M;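 note: fraction of recording tags encoded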
[36] = molecular target: M44-modified T NTAA target peptides; assay: encoding assay; P2 M
[37] = molecular target: M44-modified V NTAA target peptides; assay: encoding assay; P2 M;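 note: fraction of recording tags encoded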
[38] = molecular target: M44-modified Y NTAA target peptides (M44-Y-P2-peptide); assay: encoding assay; P2 M;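 note: fraction of recording tags encoded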
[39] = molecular target: M44-modified A NTAA target peptides (M44-A-P2-peptide); assay: encoding assay; P2 T
[40] = molecular target: M44-modified M NTAA target peptides; assay: encoding assay; P2 T
[41] = molecular target: M44-modified A NTAA target peptides (M44-A-P2-peptide); assay: encoding assay; P2 Y
[42] = molecular target: M44-modified D NTAA target peptides; assay: encoding assay; P2 Y;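 note: fraction of recording tags encoded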
[43] = molecular target: M44-modified E NTAA target peptides; assay: encoding assay; P2 Y;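 note: fraction of recording tags encoded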
[44] = molecular target: M44-modified F NTAA target peptides (M44-F-P2-peptide); assay: encoding assay; P2 Y;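 note: fraction of recording tags encoded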
[45] = molecular target: M44-modified G NTAA target peptides (M44-G-P2-peptide); assay: encoding assay; P2 Y;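 note: fraction of recording tags encoded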
[46] = molecular target: M44-modified H NTAA target peptides; assay: encoding assay; P2 Y
[47] = molecular target: M44-modified I NTAA target peptides (M44-I-P2-peptide); assay: encoding assay; P2 Y
[48] = molecular target: M44-modified L NTAA target peptides (M44-L-P2-peptide); assay: encoding assay; P2 Y;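 note: fraction of recording tags encoded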
[49] = molecular target: M44-modified M NTAA target peptides; assay: encoding assay; P2 Y
[50] = molecular target: M44-modified P NTAA target peptides; assay: encoding assay; P2 Y;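 note: fraction of recording tags encoded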
[51] = molecular target: M44-modified T NTAA target peptides; assay: encoding assay; P2 Y

- encoding yield [1]: 0.03
- encoding yield [2]: 0.02
- encoding yield [3]: 0.02
- encoding yield [4]: 0.01
- encoding yield [5]: 0.02
- encoding yield [6]: 0.01
- encoding yield [7]: 0.03
- encoding yield [8]: 0.01
- encoding yield [9]: 0.01
- encoding yield [10]: 0.03
- encoding yield [11]: 0.02
- encoding yield [12]: 0.03
- encoding yield [13]: 0.02
- encoding yield [14]: 0.02
- encoding yield [15]: 0.03
- encoding yield [16]: 0.05
- encoding yield [17]: 0.02
- encoding yield [18]: 0.06
- encoding yield [19]: 0.04
- encoding yield [20]: 0.03
- encoding yield [21]: 0.07
- encoding yield [22]: 0.15
- encoding yield [23]: 0.07
- encoding yield [24]: 0.01
- encoding yield [25]: 0.02
- encoding yield [26]: 0.03
- encoding yield [27]: 0.03
- encoding yield [28]: 0.07
- encoding yield [29]: 0.03
- encoding yield [30]: 0.07
- encoding yield [31]: 0.17
- encoding yield [32]: 0.19
- encoding yield [33]: 0.02
- encoding yield [34]: 0.02
- encoding yield [35]: 0.02
- encoding yield [36]: 0.05
- encoding yield [37]: 0.03
- encoding yield [38]: 0.03
- encoding yield [39]: 0.03
- encoding yield [40]: 0.01
- encoding yield [41]: 0.05
- encoding yield [42]: 0.05
- encoding yield [43]: 0.03
- encoding yield [44]: 0.13
- encoding yield [45]: 0.04
- encoding yield [46]: 0.09
- encoding yield [47]: 0.16
- encoding yield [48]: 0.42
- encoding yield [49]: 0.14
- encoding yield [50]: 0.03
- encoding yield [51]: 0.05
B1: engineered M44-L binder (SEQ ID NO: 31) (designed binder, not shown: small tags and cut ends; large carriers)
chain: QDSTQNLIPAPPLISVPLQPGFWTERFQGRWFLVGFAGNAVQKERQSRLTMQSLILELQEDNSYNITAINVRGQGCRYIISTLVPSSRPGQFTLGNIHSYPQIQSLDVQVADTDYDQFAMVFLQGTSENKQYFEVALAGRTKGLSDELKERFVSFAKSLGLKDNNIVFSVPTDQCIDN

- encoding yield [1]: 0.01
- encoding yield [2]: 0.01
- encoding yield [3]: 0.01
- encoding yield [4]: 0
- encoding yield [5]: 0.01
- encoding yield [6]: 0
- encoding yield [7]: 0.01
- encoding yield [8]: 0
- encoding yield [9]: 0.01
- encoding yield [10]: 0.01
- encoding yield [11]: 0.01
- encoding yield [12]: 0.01
- encoding yield [13]: 0.01
- encoding yield [14]: 0.01
- encoding yield [15]: 0.01
- encoding yield [16]: 0.02
- encoding yield [17]: 0.01
- encoding yield [18]: 0.07
- encoding yield [19]: 0.01
- encoding yield [20]: 0.01
- encoding yield [21]: 0.18
- encoding yield [22]: 0.27
- encoding yield [23]: 0.07
- encoding yield [24]: 0.01
- encoding yield [25]: 0.01
- encoding yield [26]: 0.01
- encoding yield [27]: 0.04
- encoding yield [28]: 0.04
- encoding yield [29]: 0.01
- encoding yield [30]: 0.02
- encoding yield [31]: 0.1
- encoding yield [32]: 0.02
- encoding yield [33]: 0
- encoding yield [34]: 0.01
- encoding yield [35]: 0.01
- encoding yield [36]: 0.02
- encoding yield [37]: 0.01
- encoding yield [38]: 0.01
- encoding yield [39]: 0.01
- encoding yield [40]: 0
- encoding yield [41]: 0.01
- encoding yield [42]: 0.01
- encoding yield [43]: 0.01
- encoding yield [44]: 0.02
- encoding yield [45]: 0.01
- encoding yield [46]: 0.03
- encoding yield [47]: 0.07
- encoding yield [48]: 0.08
- encoding yield [49]: 0.04
- encoding yield [50]: 0.02
- encoding yield [51]: 0.01
B2: engineered M44-L binder (SEQ ID NO: 21) (designed binder, not shown: small tags and cut ends; large carriers)
chain: QVSVQPNFQQDKFLGRWFYAGHASNSSWYREKVAALSMAKLVVAPATDGGLNATETFLRKNQCETITSLLQPAGSLGSYSSRSPHGGSTWSTSVVETDYDQYALLYLQGSKGPGEDFRGAILASRTQTPRAELKEKFTAFSKAQGFTEDTIVFLPQTDKCMTEQ

- encoding yield [1]: 0.05
- encoding yield [2]: 0.03
- encoding yield [3]: 0.02
- encoding yield [4]: 0.02
- encoding yield [5]: 0.03
- encoding yield [6]: 0.02
- encoding yield [7]: 0.04
- encoding yield [8]: 0.01
- encoding yield [9]: 0.02
- encoding yield [10]: 0.05
- encoding yield [11]: 0.03
- encoding yield [12]: 0.02
- encoding yield [13]: 0.03
- encoding yield [14]: 0.06
- encoding yield [15]: 0.04
- encoding yield [16]: 0.06
- encoding yield [17]: 0.1
- encoding yield [18]: 0.03
- encoding yield [19]: 0.05
- encoding yield [20]: 0.01
- encoding yield [21]: 0.03
- encoding yield [22]: 0.05
- encoding yield [23]: 0.05
- encoding yield [24]: 0.01
- encoding yield [25]: 0.03
- encoding yield [26]: 0.06
- encoding yield [27]: 0.03
- encoding yield [28]: 0.06
- encoding yield [29]: 0.03
- encoding yield [30]: 0.04
- encoding yield [31]: 0.15
- encoding yield [32]: 0
- encoding yield [33]: 0.02
- encoding yield [34]: 0.02
- encoding yield [35]: 0.03
- encoding yield [36]: 0.21
- encoding yield [37]: 0.12
- encoding yield [38]: 0.03
- encoding yield [39]: 0.24
- encoding yield [40]: 0.01
- encoding yield [41]: 0.29
- encoding yield [42]: 0.04
- encoding yield [43]: 0.02
- encoding yield [44]: 0.04
- encoding yield [45]: 0.08
- encoding yield [46]: 0.07
- encoding yield [47]: 0.11
- encoding yield [48]: 0.1
- encoding yield [49]: 0.06
- encoding yield [50]: 0.03
- encoding yield [51]: 0.1
B3: engineered M44-A binder (SEQ ID NO: 42) (designed binder, not shown: small tags and cut ends; large carriers)
chain: QVSVQPNFQQDKFLGRWFVAGLASNSSWDREKVAALSGAKMVVAPATDGGLNVTRTMLRKNQCETYTGLLQPAGSLGSYSWRSPHPGSTGSESVVETDYDQYALVYGQGSKGPGEDLRAAALWSRTQTPRAELKEKFTAFSKAQGFTEDTIVFLPQTDKCMTEQ
